Measured values from patent publication US20250382352A1 (SCG CELL THERAPY PTE, published 2025).

Legend:
Test in all cases: ELISA, recombinant protein
[1] = biological target: T1, HBsAg recombinant protein (hepatitis B virus)
T1 chain: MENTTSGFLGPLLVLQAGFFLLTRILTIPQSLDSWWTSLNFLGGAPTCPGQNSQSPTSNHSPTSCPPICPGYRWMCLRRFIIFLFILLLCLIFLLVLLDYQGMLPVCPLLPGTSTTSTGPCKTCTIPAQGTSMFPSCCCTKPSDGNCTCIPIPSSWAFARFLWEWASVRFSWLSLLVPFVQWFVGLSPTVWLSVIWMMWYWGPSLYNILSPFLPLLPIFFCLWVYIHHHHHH
Method: (§1) Anti-HBsAg/anti-CD3 bispecific antibodies generated in Example 1 are analyzed by standard ELISA techniques for their binding properties to HBsAg, human CD3E, and rhesus CD3ε recombinant protein, respectively.

[2] = biological target: T2, rhesus CD3ε recombinant protein (rhesus)
T2 construct: also called rhesus CD38 [sic]
Method: as §1

[3] = biological target: T3, human CD3ε recombinant protein (human, UniProt P07766 23-126)
T3 construct: also called human CD3E; huCD3ε
T3 sequence (P07766 23-126 limits assumed): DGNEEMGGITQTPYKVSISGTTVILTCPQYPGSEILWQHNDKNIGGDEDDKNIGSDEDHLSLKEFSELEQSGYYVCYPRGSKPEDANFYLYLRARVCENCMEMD
Method: as §1

B1: BsAb2-5-015 (bispecific antibody)
heavy: not shown
light: QTVVTQEPSFSVSPGGTVTLTCRSSTGAVTTSNYANWVQQTPGQAPRGLIGGTNKRAPGVPDRFSGSILGDKAALTITGAQADDESDYYCALWYSNLWVFGGGTKLTVLRTVAAPSVFIFPPSDEQLKSGTASVVCLLNNFYPREAKVQWKVDNALQSGNSQESVTEQDSKDSTYSLSSTLTLSKADYEKHKVYACEVTHQGLSSPVTKSFNRGEC
notes: also called VH3VL5
- EC50 [1]: 170 pM
- EC50 [2]: 270 pM
- EC50 [3]: 270 pM

B2: BsAb2-6-022 (bispecific antibody)
heavy: not shown
light: QTVVTQEPSLTVSPGGTVTLTCRSSTGAVTTSNYANWVQQKPGQAPRGLIGGTNKRAPGTPARFSGSLLGDKAALTLSGVQPEDEAEYYCALWYSNLWVFGGGTKLTVLRTVAAPSVFIFPPSDEQLKSGTASVVCLLNNFYPREAKVQWKVDNALQSGNSQESVTEQDSKDSTYSLSSTLTLSKADYEKHKVYACEVTHQGLSSPVTKSFNRGEC
notes: also called VH5VL2
- EC50 [1]: 770 pM
- EC50 [2]: 230 pM

B3: BsAb2-6-023 (bispecific antibody)
heavy: not shown
light: QAVVTQEPSLTVSPGGTVTLTCRSSTGAVTTSNYANWVQQKPGQAPRGLIGGTNKRAPGTPARFSGSLLGDKAALTLSGVQPEDEAEYFCALWYSNLWVFGGGTKLTVLRTVAAPSVFIFPPSDEQLKSGTASVVCLLNNFYPREAKVQWKVDNALQSGNSQESVTEQDSKDSTYSLSSTLTLSKADYEKHKVYACEVTHQGLSSPVTKSFNRGEC
notes: also called VH5VL3
- EC50 [1]: 1090 pM
- EC50 [2]: 260 pM

B4: BsAb2-6-027 (bispecific antibody)
heavy: not shown
light: QTVVTQEPSLTVSPGGTVTLTCRSSTGAVTTSNYANWVQQKPGQAPRGLIGGTNKRAPGTPARFSGSLLGDKAALTLSGVQPEDEAEYYCALWYSNLWVFGGGTKLTVLRTVAAPSVFIFPPSDEQLKSGTASVVCLLNNFYPREAKVQWKVDNALQSGNSQESVTEQDSKDSTYSLSSTLTLSKADYEKHKVYACEVTHQGLSSPVTKSFNRGEC
notes: also called VH6VL2
- EC50 [1]: 720 pM
- EC50 [2]: 210 pM

B5: BsAb2-6-028 (bispecific antibody)
heavy: not shown
light: QAVVTQEPSLTVSPGGTVTLTCRSSTGAVTTSNYANWVQQKPGQAPRGLIGGTNKRAPGTPARFSGSLLGDKAALTLSGVQPEDEAEYFCALWYSNLWVFGGGTKLTVLRTVAAPSVFIFPPSDEQLKSGTASVVCLLNNFYPREAKVQWKVDNALQSGNSQESVTEQDSKDSTYSLSSTLTLSKADYEKHKVYACEVTHQGLSSPVTKSFNRGEC
notes: also called VH6VL3
- EC50 [1]: 830 pM
- EC50 [2]: 210 pM

B6: BsAb2-6-005 (bispecific antibody)
heavy: not shown
light: QTVVTQEPSFSVSPGGTVTLTCRSSTGAVTTSNYANWVQQTPGQAPRGLIGGTNKRAPGVPDRFSGSILGDKAALTITGAQADDESDYYCALWYSNLWVFGGGTKLTVLRTVAAPSVFIFPPSDEQLKSGTASVVCLLNNFYPREAKVQWKVDNALQSGNSQESVTEQDSKDSTYSLSSTLTLSKADYEKHKVYACEVTHQGLSSPVTKSFNRGEC
notes: also called VH1VL5
- EC50 [1]: 450 pM
- EC50 [2]: 180 pM

B7: BsAb2-6-010 (bispecific antibody)
heavy: not shown
light: QTVVTQEPSFSVSPGGTVTLTCRSSTGAVTTSNYANWVQQTPGQAPRGLIGGTNKRAPGVPDRFSGSILGDKAALTITGAQADDESDYYCALWYSNLWVFGGGTKLTVLRTVAAPSVFIFPPSDEQLKSGTASVVCLLNNFYPREAKVQWKVDNALQSGNSQESVTEQDSKDSTYSLSSTLTLSKADYEKHKVYACEVTHQGLSSPVTKSFNRGEC
notes: also called VH2VL5
- EC50 [1]: 460 pM
- EC50 [2]: 230 pM

B8: BsAb2-6-025 (bispecific antibody)
heavy: not shown
light: QTVVTQEPSFSVSPGGTVTLTCRSSTGAVTTSNYANWVQQTPGQAPRGLIGGTNKRAPGVPDRFSGSILGDKAALTITGAQADDESDYYCALWYSNLWVFGGGTKLTVLRTVAAPSVFIFPPSDEQLKSGTASVVCLLNNFYPREAKVQWKVDNALQSGNSQESVTEQDSKDSTYSLSSTLTLSKADYEKHKVYACEVTHQGLSSPVTKSFNRGEC
notes: also called VH5VL5
- EC50 [1]: 1500 pM
- EC50 [2]: 500 pM

B9: BsAb2-6-030 (bispecific antibody)
heavy: not shown
light: QTVVTQEPSFSVSPGGTVTLTCRSSTGAVTTSNYANWVQQTPGQAPRGLIGGTNKRAPGVPDRFSGSILGDKAALTITGAQADDESDYYCALWYSNLWVFGGGTKLTVLRTVAAPSVFIFPPSDEQLKSGTASVVCLLNNFYPREAKVQWKVDNALQSGNSQESVTEQDSKDSTYSLSSTLTLSKADYEKHKVYACEVTHQGLSSPVTKSFNRGEC
notes: also called VH6VL5
- EC50 [1]: 480 pM
- EC50 [2]: 130 pM

B10: BsAb2-5-002 (bispecific antibody)
heavy: not shown
light: QTVVTQEPSLTVSPGGTVTLTCRSSTGAVTTSNYANWVQQKPGQAPRGLIGGTNKRAPGTPARFSGSLLGDKAALTLSGVQPEDEAEYYCALWYSNLWVFGGGTKLTVLRTVAAPSVFIFPPSDEQLKSGTASVVCLLNNFYPREAKVQWKVDNALQSGNSQESVTEQDSKDSTYSLSSTLTLSKADYEKHKVYACEVTHQGLSSPVTKSFNRGEC
notes: also called VH1VL2
- EC50 [1]: 160 pM
- EC50 [2]: 300 pM

B11: BsAb2-5-003 (bispecific antibody)
heavy: not shown
light: QAVVTQEPSLTVSPGGTVTLTCRSSTGAVTTSNYANWVQQKPGQAPRGLIGGTNKRAPGTPARFSGSLLGDKAALTLSGVQPEDEAEYFCALWYSNLWVFGGGTKLTVLRTVAAPSVFIFPPSDEQLKSGTASVVCLLNNFYPREAKVQWKVDNALQSGNSQESVTEQDSKDSTYSLSSTLTLSKADYEKHKVYACEVTHQGLSSPVTKSFNRGEC
notes: also called VH1VL3
- EC50 [1]: 210 pM
- EC50 [2]: 340 pM

B12: BsAb2-5-006 (bispecific antibody)
heavy: not shown
light: QTVVTQEPSLTVSPGGTVTLTCRSSTGAVTTSNYANWVQQKPGQAPRALIGGTNKRAPWTPARFSGSLLGDKAALTLSGVQPEDEAEYYCALWYSNLWVFGGGTKLTVLRTVAAPSVFIFPPSDEQLKSGTASVVCLLNNFYPREAKVQWKVDNALQSGNSQESVTEQDSKDSTYSLSSTLTLSKADYEKHKVYACEVTHQGLSSPVTKSFNRGEC
notes: also called VH2VL1
- EC50 [1]: 900 pM
- EC50 [2]: 2120 pM

B13: BsAb2-5-007 (bispecific antibody)
heavy: not shown
light: QTVVTQEPSLTVSPGGTVTLTCRSSTGAVTTSNYANWVQQKPGQAPRGLIGGTNKRAPGTPARFSGSLLGDKAALTLSGVQPEDEAEYYCALWYSNLWVFGGGTKLTVLRTVAAPSVFIFPPSDEQLKSGTASVVCLLNNFYPREAKVQWKVDNALQSGNSQESVTEQDSKDSTYSLSSTLTLSKADYEKHKVYACEVTHQGLSSPVTKSFNRGEC
notes: also called VH2VL2
- EC50 [1]: 230 pM
- EC50 [2]: 400 pM

B14: BsAb2-5-008 (bispecific antibody)
heavy: not shown
light: QAVVTQEPSLTVSPGGTVTLTCRSSTGAVTTSNYANWVQQKPGQAPRGLIGGTNKRAPGTPARFSGSLLGDKAALTLSGVQPEDEAEYFCALWYSNLWVFGGGTKLTVLRTVAAPSVFIFPPSDEQLKSGTASVVCLLNNFYPREAKVQWKVDNALQSGNSQESVTEQDSKDSTYSLSSTLTLSKADYEKHKVYACEVTHQGLSSPVTKSFNRGEC
notes: also called VH2VL3
- EC50 [1]: 190 pM
- EC50 [2]: 240 pM

B15: BsAb2-5-021 (bispecific antibody)
heavy: not shown
light: QTVVTQEPSLTVSPGGTVTLTCRSSTGAVTTSNYANWVQQKPGQAPRALIGGTNKRAPWTPARFSGSLLGDKAALTLSGVQPEDEAEYYCALWYSNLWVFGGGTKLTVLRTVAAPSVFIFPPSDEQLKSGTASVVCLLNNFYPREAKVQWKVDNALQSGNSQESVTEQDSKDSTYSLSSTLTLSKADYEKHKVYACEVTHQGLSSPVTKSFNRGEC
notes: also called VH5VL1
- EC50 [1]: 140 pM
- EC50 [2]: 3880 pM

B16: BsAb2-5-022 (bispecific antibody)
heavy: not shown
light: QTVVTQEPSLTVSPGGTVTLTCRSSTGAVTTSNYANWVQQKPGQAPRGLIGGTNKRAPGTPARFSGSLLGDKAALTLSGVQPEDEAEYYCALWYSNLWVFGGGTKLTVLRTVAAPSVFIFPPSDEQLKSGTASVVCLLNNFYPREAKVQWKVDNALQSGNSQESVTEQDSKDSTYSLSSTLTLSKADYEKHKVYACEVTHQGLSSPVTKSFNRGEC
notes: also called VH5VL2
- EC50 [1]: 160 pM
- EC50 [2]: 310 pM

B17: BsAb2-5-023 (bispecific antibody)
heavy: not shown
light: QAVVTQEPSLTVSPGGTVTLTCRSSTGAVTTSNYANWVQQKPGQAPRGLIGGTNKRAPGTPARFSGSLLGDKAALTLSGVQPEDEAEYFCALWYSNLWVFGGGTKLTVLRTVAAPSVFIFPPSDEQLKSGTASVVCLLNNFYPREAKVQWKVDNALQSGNSQESVTEQDSKDSTYSLSSTLTLSKADYEKHKVYACEVTHQGLSSPVTKSFNRGEC
notes: also called VH5VL3
- EC50 [1]: 180 pM
- EC50 [2]: 220 pM

B18: BsAb2-5-026 (bispecific antibody)
heavy: not shown
light: QTVVTQEPSLTVSPGGTVTLTCRSSTGAVTTSNYANWVQQKPGQAPRALIGGTNKRAPWTPARFSGSLLGDKAALTLSGVQPEDEAEYYCALWYSNLWVFGGGTKLTVLRTVAAPSVFIFPPSDEQLKSGTASVVCLLNNFYPREAKVQWKVDNALQSGNSQESVTEQDSKDSTYSLSSTLTLSKADYEKHKVYACEVTHQGLSSPVTKSFNRGEC
notes: also called VH6VL1
- EC50 [1]: 180 pM
- EC50 [2]: 2090 pM

B19: BsAb2-5-027 (bispecific antibody)
heavy: not shown
light: QTVVTQEPSLTVSPGGTVTLTCRSSTGAVTTSNYANWVQQKPGQAPRGLIGGTNKRAPGTPARFSGSLLGDKAALTLSGVQPEDEAEYYCALWYSNLWVFGGGTKLTVLRTVAAPSVFIFPPSDEQLKSGTASVVCLLNNFYPREAKVQWKVDNALQSGNSQESVTEQDSKDSTYSLSSTLTLSKADYEKHKVYACEVTHQGLSSPVTKSFNRGEC
notes: also called VH6VL2
- EC50 [1]: 160 pM
- EC50 [2]: 280 pM

B20: BsAb2-5-028 (bispecific antibody)
heavy: not shown
light: QAVVTQEPSLTVSPGGTVTLTCRSSTGAVTTSNYANWVQQKPGQAPRGLIGGTNKRAPGTPARFSGSLLGDKAALTLSGVQPEDEAEYFCALWYSNLWVFGGGTKLTVLRTVAAPSVFIFPPSDEQLKSGTASVVCLLNNFYPREAKVQWKVDNALQSGNSQESVTEQDSKDSTYSLSSTLTLSKADYEKHKVYACEVTHQGLSSPVTKSFNRGEC
notes: also called VH6VL3
- EC50 [1]: 190 pM
- EC50 [2]: 310 pM
